B1: full-length Twinkle (recombinant, without histidine tag) (enzyme, Arabidopsis thaliana, UniProt B5X582 82-709, looked up)
chain: SSYNSIPRVPTPVDTEVEADKRVVLSRLVTLRRKLAEQGVDAENCPPGQHSGLICPTCEGGNSGEKSLSLFIAPDGSSATWNCFRGKCGLKGGVRADGGLASADPIEKVERKITVEGIELEPLCDEIQDYFAARAISRKTLERNRVMQKRIGDEIVIAFTYWQRGELVSCKYRSLTKMFFQERKTRRILYGLDDIEKTSEVIIVEGEIDKLAMEEAGFLNCVSVPDGAPAKVSSKEIPSEDKDTKYKFLWNCNDYLKKASRIVIATDGDGPGQAMAEEIARRLGKERCWRVKWPKKSEDEHFKDANEVLMSKGPHLLKEAILDAEPYPILGLFSFKDFFDEIDAYYDRTHGHEYGVSTGWKNLDNLYSVVPGELTVVTGIPNSGKSEWIDAMLCNLNHSVGWKFALCSMENKVRDHARKLLEKHIKKPFFDADYGRSVQRMSVEEKDEGKKWLNDTFYPIRCEMDSLPSIDWVLERAKAAVLRYGIRGLVIDPYNELDHQRTPRQTETEYVSQMLTKIKRFSQHHSCHVWFVAHPKQLQHWDGGAPNLYDISGSAHFINKCDNGIIVHRNRDENAGPLDLVQIGVRKVRNKVAGQIGDAYLCYDRTTGSYSDSPVTPGMPERRSPKRY
notes: Twinkle, Arabidopsis thaliana, At1g30680; called full-length in the results and legend; the methods name 'Twinkle lacking the first 91 codons' as the template of the domain constructs; Used without a histidine tag; It may in fact be the form lacking the first 91 residues (92-709); also called the full-length protein
B2: Twinkle primase domain (residues 92-410) (domain or fragment, Arabidopsis thaliana, UniProt B5X582 92-410, looked up)
chain: TPVDTEVEADKRVVLSRLVTLRRKLAEQGVDAENCPPGQHSGLICPTCEGGNSGEKSLSLFIAPDGSSATWNCFRGKCGLKGGVRADGGLASADPIEKVERKITVEGIELEPLCDEIQDYFAARAISRKTLERNRVMQKRIGDEIVIAFTYWQRGELVSCKYRSLTKMFFQERKTRRILYGLDDIEKTSEVIIVEGEIDKLAMEEAGFLNCVSVPDGAPAKVSSKEIPSEDKDTKYKFLWNCNDYLKKASRIVIATDGDGPGQAMAEEIARRLGKERCWRVKWPKKSEDEHFKDANEVLMSKGPHLLKEAILDAEPYPI
notes: Twinkle, Arabidopsis thaliana, At1g30680, primase domain, residues 92-410; Tag removed with PreScission protease; also called primase module
B3: Twinkle helicase domain (401-709) (domain or fragment, Arabidopsis thaliana, UniProt B5X582 401-709, looked up)
chain: AILDAEPYPILGLFSFKDFFDEIDAYYDRTHGHEYGVSTGWKNLDNLYSVVPGELTVVTGIPNSGKSEWIDAMLCNLNHSVGWKFALCSMENKVRDHARKLLEKHIKKPFFDADYGRSVQRMSVEEKDEGKKWLNDTFYPIRCEMDSLPSIDWVLERAKAAVLRYGIRGLVIDPYNELDHQRTPRQTETEYVSQMLTKIKRFSQHHSCHVWFVAHPKQLQHWDGGAPNLYDISGSAHFINKCDNGIIVHRNRDENAGPLDLVQIGVRKVRNKVAGQIGDAYLCYDRTTGSYSDSPVTPGMPERRSPKRY
notes: Twinkle, Arabidopsis thaliana, At1g30680, helicase domain, residues 401-709; Tags of the pCri-1b vector removed with TEV protease; also called helicase module; source: cloned into pCri-1b, purified (potassium phosphate pH 7.0 buffer)
B4: Twinkle zinc finger subdomain (residues 92-186) (domain or fragment, Arabidopsis thaliana, UniProt B5X582 92-186, looked up)
chain: TPVDTEVEADKRVVLSRLVTLRRKLAEQGVDAENCPPGQHSGLICPTCEGGNSGEKSLSLFIAPDGSSATWNCFRGKCGLKGGVRADGGLASADP
notes: Twinkle, Arabidopsis thaliana, At1g30680, zinc finger subdomain, residues 92-186; Tag removed with PreScission protease; also called Zn++ Finger domain; zf

What was measured:
[1] = target: DnaE (Bacillus subtilis) (UniProt O34623); conditions: cited from earlier work
Sequence of DnaE (Bacillus subtilis) (O34623 whole entry): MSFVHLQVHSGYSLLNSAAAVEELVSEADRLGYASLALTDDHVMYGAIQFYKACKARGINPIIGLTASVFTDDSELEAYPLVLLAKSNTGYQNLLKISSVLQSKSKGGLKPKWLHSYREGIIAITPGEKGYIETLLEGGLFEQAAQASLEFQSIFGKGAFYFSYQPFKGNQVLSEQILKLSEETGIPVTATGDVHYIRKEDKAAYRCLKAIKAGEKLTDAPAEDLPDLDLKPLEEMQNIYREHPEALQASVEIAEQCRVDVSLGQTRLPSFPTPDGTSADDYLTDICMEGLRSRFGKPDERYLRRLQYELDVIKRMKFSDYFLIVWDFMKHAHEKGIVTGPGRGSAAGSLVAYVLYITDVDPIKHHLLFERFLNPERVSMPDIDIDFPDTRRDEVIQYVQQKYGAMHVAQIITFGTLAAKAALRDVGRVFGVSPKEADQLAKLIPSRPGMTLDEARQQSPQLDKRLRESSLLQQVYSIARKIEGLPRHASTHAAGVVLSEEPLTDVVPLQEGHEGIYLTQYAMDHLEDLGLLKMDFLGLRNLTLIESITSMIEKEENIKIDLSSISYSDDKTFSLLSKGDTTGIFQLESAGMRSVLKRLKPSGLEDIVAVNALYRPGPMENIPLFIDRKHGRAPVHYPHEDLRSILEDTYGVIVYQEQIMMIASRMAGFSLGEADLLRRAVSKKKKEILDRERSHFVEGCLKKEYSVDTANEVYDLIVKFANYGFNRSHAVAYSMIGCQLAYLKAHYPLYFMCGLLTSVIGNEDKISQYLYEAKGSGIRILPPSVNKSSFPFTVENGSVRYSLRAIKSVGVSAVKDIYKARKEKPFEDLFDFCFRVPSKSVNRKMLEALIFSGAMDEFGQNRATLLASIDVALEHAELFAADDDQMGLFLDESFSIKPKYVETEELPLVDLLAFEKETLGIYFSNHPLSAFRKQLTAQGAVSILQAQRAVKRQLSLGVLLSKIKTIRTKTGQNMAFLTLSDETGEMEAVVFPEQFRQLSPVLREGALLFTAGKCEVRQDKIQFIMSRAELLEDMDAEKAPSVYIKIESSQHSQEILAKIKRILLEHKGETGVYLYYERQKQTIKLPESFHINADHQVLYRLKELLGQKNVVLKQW

[2] = target: T7 primase-helicase (Escherichia phage T7) (UniProt P03692); conditions: cited from earlier work
Sequence of T7 primase-helicase (Escherichia phage T7) (P03692 whole entry): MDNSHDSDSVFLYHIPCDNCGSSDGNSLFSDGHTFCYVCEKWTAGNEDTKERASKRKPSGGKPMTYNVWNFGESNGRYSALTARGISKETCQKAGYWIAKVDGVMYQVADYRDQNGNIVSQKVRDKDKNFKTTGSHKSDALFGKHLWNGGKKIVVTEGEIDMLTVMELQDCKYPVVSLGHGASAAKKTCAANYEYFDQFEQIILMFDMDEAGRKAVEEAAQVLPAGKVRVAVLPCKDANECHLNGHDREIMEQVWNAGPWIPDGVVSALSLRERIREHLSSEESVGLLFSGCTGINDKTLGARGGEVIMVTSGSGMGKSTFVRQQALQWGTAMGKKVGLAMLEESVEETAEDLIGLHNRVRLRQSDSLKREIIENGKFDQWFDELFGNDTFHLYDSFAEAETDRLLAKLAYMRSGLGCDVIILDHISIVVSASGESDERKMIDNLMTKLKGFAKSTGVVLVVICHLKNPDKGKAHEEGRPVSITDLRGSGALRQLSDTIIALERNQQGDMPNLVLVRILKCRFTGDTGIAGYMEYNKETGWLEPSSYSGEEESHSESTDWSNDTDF

[3] = target: T1, polyhistidine-tagged Pol1B (recombinant, fluorescently labelled) (Arabidopsis thaliana, UniProt Q84ND9 56-1034, fluorescent dye RED-tris-NTA (Monolith His-Tag Labeling Kit) on the His tag); test: MST; His-tagged Pol1B labelled with RED-tris-NTA, constant 20 nM (10 nM in the results text); ligands in 16 serial dilutions; PBS + 0.05% Tween; Monolith NT.115p, 10% LED power, 50% MST power, standard capillaries; conditions: both partners purified
T1 construct: DNA polymerase 1B, Arabidopsis thaliana, At3g20540; also called his-tagged Pol1B; DNA polymerase 1B; source: recombinant, purified
T1 sequence (looked up): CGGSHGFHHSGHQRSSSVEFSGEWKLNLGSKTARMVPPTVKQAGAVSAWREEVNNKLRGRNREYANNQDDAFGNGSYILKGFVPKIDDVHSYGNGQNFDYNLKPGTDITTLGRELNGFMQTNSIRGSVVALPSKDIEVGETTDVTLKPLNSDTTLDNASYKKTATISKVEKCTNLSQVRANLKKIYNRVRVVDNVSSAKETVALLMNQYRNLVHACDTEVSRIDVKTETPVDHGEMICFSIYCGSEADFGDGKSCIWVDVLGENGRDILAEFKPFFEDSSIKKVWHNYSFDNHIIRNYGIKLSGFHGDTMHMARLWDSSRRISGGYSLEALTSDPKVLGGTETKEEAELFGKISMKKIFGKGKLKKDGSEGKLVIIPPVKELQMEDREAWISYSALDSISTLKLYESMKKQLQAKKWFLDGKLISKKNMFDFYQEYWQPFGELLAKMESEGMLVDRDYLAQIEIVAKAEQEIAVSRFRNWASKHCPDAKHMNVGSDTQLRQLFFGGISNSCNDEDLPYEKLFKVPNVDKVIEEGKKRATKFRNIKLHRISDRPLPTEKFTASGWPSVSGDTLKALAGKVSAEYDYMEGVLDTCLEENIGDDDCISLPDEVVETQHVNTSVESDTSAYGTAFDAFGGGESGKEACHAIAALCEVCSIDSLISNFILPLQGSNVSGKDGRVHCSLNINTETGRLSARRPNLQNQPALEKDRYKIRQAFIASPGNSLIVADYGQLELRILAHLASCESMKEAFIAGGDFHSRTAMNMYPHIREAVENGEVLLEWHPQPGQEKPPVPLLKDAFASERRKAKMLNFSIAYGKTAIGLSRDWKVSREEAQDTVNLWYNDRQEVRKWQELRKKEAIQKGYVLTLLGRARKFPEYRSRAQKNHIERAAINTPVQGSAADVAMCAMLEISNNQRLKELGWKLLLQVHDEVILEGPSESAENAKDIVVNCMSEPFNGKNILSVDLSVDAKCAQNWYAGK

Molecule	Kd [3] [nM]	also measured
DnaG primase (from UniProt P05096)		Kd [1]: 750 nM
T7 DNA polymerase (from UniProt P00581)		Kd [2]: 440 nM
B1	1260	
B2	810	
B3	1970	
B4	2170	

Source: PMC6554949, “Arabidopsis thaliana organelles mimic the T7 phage DNA replisome with specific interactions between Twinkle protein and DNA polymerases Pol1A and Pol1B” (BMC Plant Biology, 2019)
